Sequences and labels used below:
T1: Human CD3eg linker (human)
T1 construct: Single-chain construct; also called recombinant human CD3
T1 chain: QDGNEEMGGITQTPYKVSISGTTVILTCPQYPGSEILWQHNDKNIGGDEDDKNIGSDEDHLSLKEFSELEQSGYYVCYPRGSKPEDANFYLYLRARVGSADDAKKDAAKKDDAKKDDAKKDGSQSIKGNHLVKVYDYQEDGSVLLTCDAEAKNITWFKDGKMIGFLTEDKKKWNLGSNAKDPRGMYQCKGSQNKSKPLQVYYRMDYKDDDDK

B1: H183/L072 VL L33M (antibody, name in Kabat numbering, V domains shown)
VH: QVQLVESGGGLVQPGRSLRLSCAASGFTFSNAWMHWVRQAPGKGLEWVAQIKDKGNAYAAYYAPSVKGRFTISRDDSKNSIYLQMNSLKTEDTAVYYCHYVHYASASTVLPAFGVDAWGQGTTVTVSS
VL: DIVMTQSPLSLPVTPGEPASISCQASQELVHMNRNTYMHWYQQKPGQAPRLLIYKVSNRFPGVPDRFSGSGSGTDFTLKISRVEAEDVGVYYCAQGTSVPFTFGQGTKLEIK
B2: H183/L072 VL L33S (antibody, name in Kabat numbering, V domains shown)
VH: QVQLVESGGGLVQPGRSLRLSCAASGFTFSNAWMHWVRQAPGKGLEWVAQIKDKGNAYAAYYAPSVKGRFTISRDDSKNSIYLQMNSLKTEDTAVYYCHYVHYASASTVLPAFGVDAWGQGTTVTVSS
VL: DIVMTQSPLSLPVTPGEPASISCQASQELVHMNRNTYSHWYQQKPGQAPRLLIYKVSNRFPGVPDRFSGSGSGTDFTLKISRVEAEDVGVYYCAQGTSVPFTFGQGTKLEIK
B3: H183/L072 VL M27eH (antibody, name in Kabat numbering, V domains shown)
VH: QVQLVESGGGLVQPGRSLRLSCAASGFTFSNAWMHWVRQAPGKGLEWVAQIKDKGNAYAAYYAPSVKGRFTISRDDSKNSIYLQMNSLKTEDTAVYYCHYVHYASASTVLPAFGVDAWGQGTTVTVSS
VL: DIVMTQSPLSLPVTPGEPASISCQASQELVHHNRNTYLHWYQQKPGQAPRLLIYKVSNRFPGVPDRFSGSGSGTDFTLKISRVEAEDVGVYYCAQGTSVPFTFGQGTKLEIK
B4: H183/L072 VL M27eD (antibody, name in Kabat numbering, V domains shown)
VH: QVQLVESGGGLVQPGRSLRLSCAASGFTFSNAWMHWVRQAPGKGLEWVAQIKDKGNAYAAYYAPSVKGRFTISRDDSKNSIYLQMNSLKTEDTAVYYCHYVHYASASTVLPAFGVDAWGQGTTVTVSS
VL: DIVMTQSPLSLPVTPGEPASISCQASQELVHDNRNTYLHWYQQKPGQAPRLLIYKVSNRFPGVPDRFSGSGSGTDFTLKISRVEAEDVGVYYCAQGTSVPFTFGQGTKLEIK
B5: H183/L072 VL M27eS (antibody, name in Kabat numbering, V domains shown)
VH: QVQLVESGGGLVQPGRSLRLSCAASGFTFSNAWMHWVRQAPGKGLEWVAQIKDKGNAYAAYYAPSVKGRFTISRDDSKNSIYLQMNSLKTEDTAVYYCHYVHYASASTVLPAFGVDAWGQGTTVTVSS
VL: DIVMTQSPLSLPVTPGEPASISCQASQELVHSNRNTYLHWYQQKPGQAPRLLIYKVSNRFPGVPDRFSGSGSGTDFTLKISRVEAEDVGVYYCAQGTSVPFTFGQGTKLEIK
B6: H183/L072 VL L33V (antibody, name in Kabat numbering, V domains shown)
VH: QVQLVESGGGLVQPGRSLRLSCAASGFTFSNAWMHWVRQAPGKGLEWVAQIKDKGNAYAAYYAPSVKGRFTISRDDSKNSIYLQMNSLKTEDTAVYYCHYVHYASASTVLPAFGVDAWGQGTTVTVSS
VL: DIVMTQSPLSLPVTPGEPASISCQASQELVHMNRNTYVHWYQQKPGQAPRLLIYKVSNRFPGVPDRFSGSGSGTDFTLKISRVEAEDVGVYYCAQGTSVPFTFGQGTKLEIK
B7: H183/L072 VL M27eG (antibody, name in Kabat numbering, V domains shown)
VH: QVQLVESGGGLVQPGRSLRLSCAASGFTFSNAWMHWVRQAPGKGLEWVAQIKDKGNAYAAYYAPSVKGRFTISRDDSKNSIYLQMNSLKTEDTAVYYCHYVHYASASTVLPAFGVDAWGQGTTVTVSS
VL: DIVMTQSPLSLPVTPGEPASISCQASQELVHGNRNTYLHWYQQKPGQAPRLLIYKVSNRFPGVPDRFSGSGSGTDFTLKISRVEAEDVGVYYCAQGTSVPFTFGQGTKLEIK
B8: H183/L072 VL M27eP (antibody, name in Kabat numbering, V domains shown)
VH: QVQLVESGGGLVQPGRSLRLSCAASGFTFSNAWMHWVRQAPGKGLEWVAQIKDKGNAYAAYYAPSVKGRFTISRDDSKNSIYLQMNSLKTEDTAVYYCHYVHYASASTVLPAFGVDAWGQGTTVTVSS
VL: DIVMTQSPLSLPVTPGEPASISCQASQELVHPNRNTYLHWYQQKPGQAPRLLIYKVSNRFPGVPDRFSGSGSGTDFTLKISRVEAEDVGVYYCAQGTSVPFTFGQGTKLEIK
B9: H183/L072 VL M27eE (antibody, name in Kabat numbering, V domains shown)
VH: QVQLVESGGGLVQPGRSLRLSCAASGFTFSNAWMHWVRQAPGKGLEWVAQIKDKGNAYAAYYAPSVKGRFTISRDDSKNSIYLQMNSLKTEDTAVYYCHYVHYASASTVLPAFGVDAWGQGTTVTVSS
VL: DIVMTQSPLSLPVTPGEPASISCQASQELVHENRNTYLHWYQQKPGQAPRLLIYKVSNRFPGVPDRFSGSGSGTDFTLKISRVEAEDVGVYYCAQGTSVPFTFGQGTKLEIK
B10: H183/L072 VL M27eA (antibody, name in Kabat numbering, V domains shown)
VH: QVQLVESGGGLVQPGRSLRLSCAASGFTFSNAWMHWVRQAPGKGLEWVAQIKDKGNAYAAYYAPSVKGRFTISRDDSKNSIYLQMNSLKTEDTAVYYCHYVHYASASTVLPAFGVDAWGQGTTVTVSS
VL: DIVMTQSPLSLPVTPGEPASISCQASQELVHANRNTYLHWYQQKPGQAPRLLIYKVSNRFPGVPDRFSGSGSGTDFTLKISRVEAEDVGVYYCAQGTSVPFTFGQGTKLEIK
B11: H183/L072 VL M27eF (antibody, name in Kabat numbering, V domains shown)
VH: QVQLVESGGGLVQPGRSLRLSCAASGFTFSNAWMHWVRQAPGKGLEWVAQIKDKGNAYAAYYAPSVKGRFTISRDDSKNSIYLQMNSLKTEDTAVYYCHYVHYASASTVLPAFGVDAWGQGTTVTVSS
VL: DIVMTQSPLSLPVTPGEPASISCQASQELVHFNRNTYLHWYQQKPGQAPRLLIYKVSNRFPGVPDRFSGSGSGTDFTLKISRVEAEDVGVYYCAQGTSVPFTFGQGTKLEIK
B12: H183/L072 VL M27eR (antibody, name in Kabat numbering, V domains shown)
VH: QVQLVESGGGLVQPGRSLRLSCAASGFTFSNAWMHWVRQAPGKGLEWVAQIKDKGNAYAAYYAPSVKGRFTISRDDSKNSIYLQMNSLKTEDTAVYYCHYVHYASASTVLPAFGVDAWGQGTTVTVSS
VL: DIVMTQSPLSLPVTPGEPASISCQASQELVHRNRNTYLHWYQQKPGQAPRLLIYKVSNRFPGVPDRFSGSGSGTDFTLKISRVEAEDVGVYYCAQGTSVPFTFGQGTKLEIK
B13: H183/L072 VL M27eI (antibody, name in Kabat numbering, V domains shown)
VH: QVQLVESGGGLVQPGRSLRLSCAASGFTFSNAWMHWVRQAPGKGLEWVAQIKDKGNAYAAYYAPSVKGRFTISRDDSKNSIYLQMNSLKTEDTAVYYCHYVHYASASTVLPAFGVDAWGQGTTVTVSS
VL: DIVMTQSPLSLPVTPGEPASISCQASQELVHINRNTYLHWYQQKPGQAPRLLIYKVSNRFPGVPDRFSGSGSGTDFTLKISRVEAEDVGVYYCAQGTSVPFTFGQGTKLEIK
B14: H183/L072 VL L33Q (antibody, name in Kabat numbering, V domains shown)
VH: QVQLVESGGGLVQPGRSLRLSCAASGFTFSNAWMHWVRQAPGKGLEWVAQIKDKGNAYAAYYAPSVKGRFTISRDDSKNSIYLQMNSLKTEDTAVYYCHYVHYASASTVLPAFGVDAWGQGTTVTVSS
VL: DIVMTQSPLSLPVTPGEPASISCQASQELVHMNRNTYQHWYQQKPGQAPRLLIYKVSNRFPGVPDRFSGSGSGTDFTLKISRVEAEDVGVYYCAQGTSVPFTFGQGTKLEIK
B15: H183/L072 VL M27eN (antibody, name in Kabat numbering, V domains shown)
VH: QVQLVESGGGLVQPGRSLRLSCAASGFTFSNAWMHWVRQAPGKGLEWVAQIKDKGNAYAAYYAPSVKGRFTISRDDSKNSIYLQMNSLKTEDTAVYYCHYVHYASASTVLPAFGVDAWGQGTTVTVSS
VL: DIVMTQSPLSLPVTPGEPASISCQASQELVHNNRNTYLHWYQQKPGQAPRLLIYKVSNRFPGVPDRFSGSGSGTDFTLKISRVEAEDVGVYYCAQGTSVPFTFGQGTKLEIK
B16: H183/L072 VL M27eL (antibody, name in Kabat numbering, V domains shown)
VH: QVQLVESGGGLVQPGRSLRLSCAASGFTFSNAWMHWVRQAPGKGLEWVAQIKDKGNAYAAYYAPSVKGRFTISRDDSKNSIYLQMNSLKTEDTAVYYCHYVHYASASTVLPAFGVDAWGQGTTVTVSS
VL: DIVMTQSPLSLPVTPGEPASISCQASQELVHLNRNTYLHWYQQKPGQAPRLLIYKVSNRFPGVPDRFSGSGSGTDFTLKISRVEAEDVGVYYCAQGTSVPFTFGQGTKLEIK
B17: H183/L072 VL M27eQ (antibody, name in Kabat numbering, V domains shown)
VH: QVQLVESGGGLVQPGRSLRLSCAASGFTFSNAWMHWVRQAPGKGLEWVAQIKDKGNAYAAYYAPSVKGRFTISRDDSKNSIYLQMNSLKTEDTAVYYCHYVHYASASTVLPAFGVDAWGQGTTVTVSS
VL: DIVMTQSPLSLPVTPGEPASISCQASQELVHQNRNTYLHWYQQKPGQAPRLLIYKVSNRFPGVPDRFSGSGSGTDFTLKISRVEAEDVGVYYCAQGTSVPFTFGQGTKLEIK
B18: H183/L072 VL L33N (antibody, name in Kabat numbering, V domains shown)
VH: QVQLVESGGGLVQPGRSLRLSCAASGFTFSNAWMHWVRQAPGKGLEWVAQIKDKGNAYAAYYAPSVKGRFTISRDDSKNSIYLQMNSLKTEDTAVYYCHYVHYASASTVLPAFGVDAWGQGTTVTVSS
VL: DIVMTQSPLSLPVTPGEPASISCQASQELVHMNRNTYNHWYQQKPGQAPRLLIYKVSNRFPGVPDRFSGSGSGTDFTLKISRVEAEDVGVYYCAQGTSVPFTFGQGTKLEIK
B19: H183/L072 VL M27eK (antibody, name in Kabat numbering, V domains shown)
VH: QVQLVESGGGLVQPGRSLRLSCAASGFTFSNAWMHWVRQAPGKGLEWVAQIKDKGNAYAAYYAPSVKGRFTISRDDSKNSIYLQMNSLKTEDTAVYYCHYVHYASASTVLPAFGVDAWGQGTTVTVSS
VL: DIVMTQSPLSLPVTPGEPASISCQASQELVHKNRNTYLHWYQQKPGQAPRLLIYKVSNRFPGVPDRFSGSGSGTDFTLKISRVEAEDVGVYYCAQGTSVPFTFGQGTKLEIK
B20: H183/L072 VL L33T (antibody, name in Kabat numbering, V domains shown)
VH: QVQLVESGGGLVQPGRSLRLSCAASGFTFSNAWMHWVRQAPGKGLEWVAQIKDKGNAYAAYYAPSVKGRFTISRDDSKNSIYLQMNSLKTEDTAVYYCHYVHYASASTVLPAFGVDAWGQGTTVTVSS
VL: DIVMTQSPLSLPVTPGEPASISCQASQELVHMNRNTYTHWYQQKPGQAPRLLIYKVSNRFPGVPDRFSGSGSGTDFTLKISRVEAEDVGVYYCAQGTSVPFTFGQGTKLEIK

These results are taken from US20210388087A1 (Chugai, published 2021).

The target in the assay is T1, Human CD3eg linker. The assay is described as follows: SPR; fold vs parent H183/L072. (In SPR one partner is held on a chip, and binding of the other changes the refractive index at the surface.)
With B1, the “fold change of affinity” value came out at 1.1 fold. For B2 the value was 0 fold; for B3, 0.9 fold; for B4, 0.8 fold. Turning to B5, the “fold change of affinity” value worked out at 1.2 fold. The result for B6 reads 0.4 fold; that for B7, 0.9 fold. The result for B8 reads 1.2 fold; that for B9, 1 fold. For B10 the value was 1.3 fold; for B11, 0.9 fold; for B12, 1.4 fold. Consider B13, for which the “fold change of affinity” value worked out at 0.9 fold. For B14, the “fold change of affinity” value was determined as 1.7 fold. Consider B15, for which the “fold change of affinity” value worked out at 0.9 fold. The result for B16 reads 1 fold. The result for B17 reads 1.1 fold. For B18 the value was 0 fold; for B19, 1.4 fold; for B20, 0.3 fold.
